Reference: the DeepSol protein solubility set

Test: soluble on expression in E. coli; label from the status in PepcDB or PDB records

Soluble on expression in E. coli, soluble:
MARARKGALVQCDPSIKALILQIDAKMSDIVLEELDDTHLLVNPSKVEFVKHELNRLLSKNIYNPMDEEENQ, AKVIFVLAMDVSGKIASSVESWSSFEDRKNFRKITTEIGNVVMGRITFEEIGRPLPERLNVVLTRRPKTSNNPSLVFFNGSPADVVKFLEGKGYERVAVIGGKTVFTEFLREKLVDELFVTVEPYVFGKGIPFFDEFEGYFPLKLLEMRRLNERGTLFLKYSVEKSHR, MAHHHHHHMGIVGEYEILETLGTGAFSKVKLVRHLPTNVYFVAKIIQKSNQQVETDVRLEISILRRLRHRNIVQLIEILESSNNYYIILEPVLGGDVCSLVLSQEGGLAEDFVANLFFQLVAGLRACHQNGVAHRDLKPENLLLTGEKVLKISDFGLSRLHKQSNFHAEAEEYAHTLTGTLAYVAPEVLDGNYDAFKADIWSIGCILYVMLTGQFPFGPTTDACELGERIKDGRVCEMPKSVSENARELTMWLLSRDPASRPSLDEVATHAFLRQHVPAKNIMALTRSRQAKILAPDPSEFSSAIPEEKQVANS

Soluble on expression in E. coli, not soluble:
MKAARQQAIVDLLINHKSLTTEALATRLNVSKETIRRDLSELQTQGKVLRNHGRAKYIHRENQDSGDPFHIRLKSHYAHKADIAREALAWIEEGMTIALDASSTCWYLARQLPDIPIQVFTNSHPICQELGKRERIALISSGGQLERKYGCYVNPSLISQLKSLDIDLFIFSCEGIDGGGDLWDSNAINADFKSILLRRASQSLLLIDKSKFNRSGEARIGHLDDVTHIVSDAPQSLEHHHHHH, MGICVVIPAFNAALTIEAVVRETLEQGLPLVVVDDGSEDGTADCVRGLPVNLVSHGRNRGKGAALKTGFAWALEYGFSGVITLDSDGQHDPTAITLLAETAKNDGWDILVASRFAQFNQMAGLRRHWNRFGAWCMKKRTGFQIDDSQSGFRYYSARLLRMVSLGKDGYDLEMEILMKAWQAGCTIGSVPVPARVADGRATSHFRPVRDTWNICMTFLRYMLEHHHHHH, MVADHFRYLVQYDDINREEHAHKSRIAYQEALGIAKDKMQPTHPIRLGLALNASALNFDVLNLPKEANEIAQSALDSAHRELEKMKSSLDSYDISNLKRARTLYDLLKSTHEQRVDGKEGEEADN, DNKELQKLTEDISETYFKKPFRHQALFNDRLKTTGGRYLLTSHNIELNRKYLIEHGREELIGIIKHELCHYHLHLEGKGYKHRDRDFRMLLQQVNAPRFCTPLKKKAENKKTYMYICTTCGQQYIKKRAMNPDRYRCGKCRGKIKRI, MNAEERFDRITRLTRRIFALPICVVTLVDASRQWFKSCQGLEVTETSRDISFCGHAINHDGIFIVNDAQMDPRFHDNPLVTQSPHIRFYAGYPLTIRGEYRVGTLCLIGNEPREFSADDIETLTDLGQMVEAELLSISLNTLDPLEHHHHHH, MGSDKIHHHHHHMTEQFNINQFNCSISGKGQTLIWAHGSTGCIQSEDAIGLYAWHRFPKKLQLIRYDAVGHGLSSAGKCVEDYLWPELANDMISVATHCKATSELILGGQSMGSATSLYAALKHPGMVKGLILMNPPNAWHSRAAQVDEYHKMAKAARIFGGKGLAKISAKHWDKLLPNWLINGHEHSVLGMLDGLKQMTSQTLDQLFRAAALNDLPNKQLLSGLTMPTLILAWHGDKTHPVETAIELHQTLPNSTLHIADSVDEVNEWPELISEFCFRL, LTGPQLAVVGSRQPSPYALRAMRRLLPQVVRQQVCLVSGLAQGVDTLAHQAALAHRGKTIAVIGTGLDHCYPAGNRDLMTELAHHHLVISEYPWGTAGARHHFPERNRIIAGLSQSTLVVEAARHSGSLITANIALQENRNVLAVPGSLDNPNSVGTNELILAGAKPILNSEHIIEEVLVDKRL, MGSDKIHHHHHHMINIIICEGKKSERVILNDYINTFFYNYNFEYNIKEFENGGDLLKKYPNNVDIIFMDIDLNDENGFNVSKEIKKFDESVRIIFVSSSNKYIKKGYEIGVYRYLEKPLKYSLFKEAISSYLKECYKNEAILSIKCKCKIYFIKVDDILYLEVLKNDLTIHTEKGIYTFKSSMKEIESNLEEHNFFRCHKSYLINLMKVNMLDIENNIVFINQNSIIVSRYKIKLLREKLNSCLVDVII, MSTAQAVKIGIAEMEVVIAPNVIRTCGLGSCVGVVIYDAGKAVAGMAHVMLPHSSMARGGVINAAKYADTAVEALVQLVIAAGGRKGMLKAKLAGGAQMFSFSTVGGDMMRIGARNVEEVKKQLERLHIPVVAEDVGGHSGRTIEFNPQTGVLSIRTAAQEIKEI, MNPQRGILFACLLVVVTNRGATAQHARPPVGVTGDVTGARIDPPSDKCENPSVNIATTEAPKIVTTAEPAANSTKPAQPNSATGPVVLLTIVAVTMN
